Laboratory results: article PMC11261967, “The retrotransposon-derived capsid genes PNMA1 and PNMA4 maintain reproductive capacity” (Research Square, 2024)

Biological target: the molecule itself
Experiment: SEC + other: negative stain transmission electron microscopy; Ni-purified His-tagged protein run over Superose 6 Increase HiScale (80 ml); void (high molecular weight) fractions visualised by negative stain TEM (2% uranyl acetate), 2D classes in cryoSPARC; self-assembly into capsid-like particles

| Protein | binding result |
| --- | --- |
| recombinant mouse PNMA1, His-tagged (natural protein, UniProt Q8C1C8 1-353, looked up, PNMA1, mouse, full-length Pnma1 cloned into the first cassette of a modified pET-Duet plasmid; The modified pET-Duet encodes a C-terminal 3C protease cut site followed by the His tag; no cleavage is described; source: E. coli LOBSTR (RIL plasmid), purified (Ni-Sepharose, Superose 6 size exclusion; void fractions collected); not shown: His tag, C-terminal, kept) MAMTLLEDWCRGMDVNSQRALLVWGIPVNCDETEIEETLQAAMPQVSYRVLGRMFWREENAKAALLELTGAVDYSLIPREMPGKGGLWKVVFKPPTSDAVFLERLHLFLAREGWTVQDVARVLGFQNPAPAPGPEMPAEMLNYILDNVIQPLVESIWYKKLTLFSGKDIPGPGEETFDSWLEHSNEIIEEWQVSDIEKRRRLMESLRGPAADVIRILKTNNAAITTAECLKALEQVFGSVESSRDAQVRFLNTYQNPGEKLSSYVIRLEPLLQKVVDKGVIDKDNVNQARLEQVIAGANHSGALRRQLWLAGAEEGPAPNLFQLLVQIREEEAKKEEEEAEAALLQLGLEGHF | binds |
| recombinant mouse PNMA4, His-tagged (natural protein, UniProt Q9ERH6 1-352, looked up, PNMA4 (also called MOAP-1 or MAP-1), mouse, full-length Pnma4 cloned into the first cassette of a modified pET-Duet plasmid; The modified pET-Duet encodes a C-terminal 3C protease cut site followed by the His tag; no cleavage is described; also called MOAP-1; MAP-1; source: E. coli LOBSTR (RIL plasmid), purified (Ni-Sepharose, Superose 6 size exclusion; void fractions collected); not shown: His …) MTLRLLEDWCRGMDMNPRKALLVAGIPPTCGVADIEEALQAGLAPLGEHRLLGRMFRRDENKNVALIGLTVETGSALVPKEIPAKGGVWRVIFKPPDTDSDFLCRLNEFLKGEGMTMGELTRVLGNRNDPLGLDPGIMIPEIRAPMLAQALNEALKPTLQYLRYKKLSVFSGRDPPGPGEEEFESWMFHTSQVMKTWQVSDVEKRRRLIESLRGPAFEIIRVLKINNPFITVAECLKTLETIFGIIDNPRALQVKYLTTYQKTDEKLSAYVLRLEPLLQKLVQKGAIEKEVVNQARLDQVIAGAVHKSVRRELGLPEGSPAPGLLQLLTLIKDKEAEEEEVLLQAELEGYCT | binds |
